Results reported in the nanobody polyreactivity screen of Harvey et al. (2022).

test: yeast display, Sf9 membrane polyspecificity reagent, FACS + sequencing; frameworks hold sequencing errors
How it was run: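 A nanobody's polyreactivity label depends on the gate it was sorted from. Yeast display cells were stained with 10% biotinylated, detergent-solubilized Sf9 membrane reagent for 1 hour at 4 °C, enriched on streptavidin microbeads and sorted by FACS. The low and high (top ~1%) gates were set on anti-HA fluorescence for expression and streptavidin fluorescence for reagent binding.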

Sequence | polyreactivity (PSR sort gate)
QVQLQESGGGLVHAGGSLRLSCPASGTISFINMMGWYRQAPGRERELVASINFGANTNYADSVKGRFTISRDNAKNTVYLQLKSLKPEDTAVYYCAVYCAWTIGFTYWGQGTQVTVRS | high polyreactivity
QVQLQESGGGLVLAGGSLRLNCAESGYISWSFTMGWYRKPTGKEREFVAGITYGGITYYADSVKGRFTISRDNAKNTVYLEMNRLKPEDTAVYYCAAPQSYPYVYVYWGQGTEVTVSS | high polyreactivity
QVQLQESGGGLVQACGSLRLSCAASGSISNGDYMGWYRQAPGKEREFVAGINTGSITYYADSVKGRFTISRDNAKNTAYLQMNSLKPEDTAVYYCAATFDAQFREPKGLYYWGQGTQVTVSS | low polyreactivity
QVQLQESGGGLVQACGSLRLSCAASGYIFSHQYMGWYRQAPGKERELVASISPGATTNYADSVKGRFTISRDNAKNTVYLQMNSLKPEDTAVYYYAVQTPDVIRHFYWGQGTQVTVSS | high polyreactivity
QVQLQESGGGLVQADGSLRLSCAASGSIFGYYYMGWYRQAPGKDRELVATINICGITNYADSVKGRFTISRDNAKNTVYLQMNSLKPDDNAVYYCAADEYAQRDLGYWGQGTQVTVSS | low polyreactivity
QVQLQESGGGLVQAGASLRLSCAASGTIFLFRNMGWHRQAPGKERELVAGINGGTTTYYADSVIGRFTISRDNAKNTVYLQMNSLKPDDTAVYNCAAGASRLTYYDYWGLGTQVTVSS | low polyreactivity
QVQLQESGGGLVQAGGCLRLSCAASGSIFTYAVMGWYRQAHGKEHELVATIDTGSSTYYADSVKGRITISRDNAKNTLYLQMNSLIPEDTAVYYCAVNTYCRVRYRYWGQGTQVTVSS | high polyreactivity
QVQLQESGGGLVQAGGCLSCTASGTIFGQGDMGWSRQSPGKERELVATINDGASTYYADSVKGRFTISRDKAKNTVYLQKNSLKPDDTAVYYCAVLTDITTYFGYWGQGTQVTVSS | low polyreactivity
QVQLQESGGGLVQAGGCLSCTSSGTIFGQGDMGWYRQAPGKERELVATINDGASTYYADSVKGRFTISRDTAKNSVYLQKNSLKPDDTAVYYCAVFTDITTYFGYWGQGTQVTVSS | low polyreactivity
QVQLQESGGGLVQAGGDLRLSCAASGNIFRDYIMGWYRQAPGKEREFVAGIDRGANTNYADSVKGRFTISRDNAINTVYLQMKSLKPVDTAVYYCAVHTAFVPDFIYWGQGTQVTVSS | low polyreactivity
QVQLQESGGGLVQAGGGLRLSCAASGTISGPHVMGSSRQAPRKEREFLAAINVGANTYYADNVKGRFTISRDNAKNTVYLQMNSLKPEDTAVYYCAAVYYGDIGHEYWGQGTQVTVSC | low polyreactivity
QVQLQESGGGLVQAGGGLRLSCAASGTISGPHVMGWYRQAPGKEREFVAAINVGANTYYADNVKGRFTISRDNAKNTVYLQMNSLKPEDTAVYYRAAVYYGDIGHEYWGQGTQVTVSC | low polyreactivity
QVQLQESGGGLVQAGGILRLSCAACGNIFPSAVMGWYRQALGKEREFVATINSGSNTYYADSVKGRFTISRDNAKNTVYLQMNSLKLEDTAVYYCAAYFKLQAWHTYWGQGTQVTVSS | low polyreactivity
QVQLQESGGGLVQAGGILRLSCAASGPISRRSTMGWYRQAPGKERELVTAITRGTNTNYADSVKGRFTISRDNAKNTEYLQMNSLKPEDTAVYYCAAYGVLKPYRGDAVFHRYWGQGTQVTVSS | low polyreactivity
QVQLQESGGGLVQAGGNLRLSCAASGYISRWYGMGWYRQAPGKERELVAGMSPGGSTYYADSVKGRITISRDNAKNTVYLQMNSLKPEDTAVYYCAAQDFQDSIYFYWGQGTQVTVSS | high polyreactivity
QVQLQESGGGLVQAGGSLCMSCAASGSISDYIFMCWYRQAPGKVREFVAGIGIGGKTNYADSVKGRFTIRRDNEKYTVYLQMNSLKPEDTALYYCAANATYTDYYAYCGQGTQVTVSS | low polyreactivity
QVQLQESGGGLVQAGGSLGCEASGNISTRSEMGWYRQAPGKEREFVATINSGGITNYADSVKGRFTISRDNAKNTVYLRMNSLKPEDTAVYYRAVYGYFSDPYDYWGQGTQVTVSS | low polyreactivity
QVQLQESGGGLVQAGGSLRLGCAASGYISGFNEMGWYRQAPGKGRELDAAITYGGITNYADSVKGRFTISRDNAKNTVYLQMNSLKPEDTAMYYCAAGDFDQSNHAYWGQDTQVTVSS | high polyreactivity
QVQLQESGGGLVQAGGSLRLICAESGSISQTVYMGWYRQAPGKEREFVAAINAGASTYYADSVKGRFTISRDNAKNTVYLQMNSLKPEDTAVYYCAAEYYSAAYNRYWGQGTQVTVSS | low polyreactivity
QVQLQESGGGLVQAGGSLRLICSASGTNFTARFIGWYRQAPGKERELVATITDGGNTNHADSVKGRFTISRDNAKNTVFLQMNSLKPEDAAVYYCAAGEVDIDTLLYWGQGSQVTVSS | low polyreactivity
QVQLQESGGGLVQAGGSLRLSCAAIGYISYFVGMGWYRQQPGKEREFVASIADVSNTYYADSVKGRFTISRDNAKNTVYLQRNSLKPEDTAVYYCAVVDSWTYRFDYWGQGTQVTVSS | high polyreactivity

Sequence | polyreactivity (PSR sort gate)
QVQLQESGGGLVQAGGSLRLSCAASCTISQEDWMGWYRQAPGKEREFVAAIGLGSNTNYADSLKGRFTISRDNAKNTVYLQMNSLKPEDTAVYYCAVTVWQYSDHVYRGQGTQVTVSS | low polyreactivity
QVQLQESGGGLVQAGGSLRLSCAASGAIFDGFNMGWYRQAPGKEGEFVAAISYGASTDYADSVKGRFTVSRDNAKNSVYLQMNSLKPEDTAVYYCAVYDELYHVLVYWGRGTQVTVSS | low polyreactivity
QVQLQESGGGLVQAGGSLRLSCAASGNISVTGFMGWYRQAPGKERELVASIGIGGTTYYADSVKGRFSISRDNAKNTVYLQMNSLKPEDTAVYYCAARYLYYAYSYWCQGTQVTVSS | low polyreactivity
QVQLQESGGGLVQAGGSLRLSCAASGNISVTGFMGWYRQAPGKERELVASIGIGGTTYYADSVKGRFSISRDNGKNTVYLQLNSLKPEDSAVYYCAARYLYYAYSYWGQGTQVTVSS | low polyreactivity
QVQLQESGGGLVQAGGSLRLSCAASGNIYPTVSMGWYRQAPGKEREFVVTIDPGSNTYYADSAKGRFTISRDNAKNTVYLQMNSPKPEDTAVYYCAVVFADWATYGYWGQGTQVTVSS | high polyreactivity
QVQLQESGGGLVQAGGSLRLSCAASGNTSDTGYMGWYRQAPGKERKLVASIDYGSNTYYADSVKVRFTISRDNAKNTVYLQMNSLKPEDTAVYYCAAYYIGDYTLVYWGQGTQVTVSS | high polyreactivity
QVQLQESGGGLVQAGGSLRLSCAASGSIAHYIFMGWYRQAPGKEREFVAGIGYGGTTNYADSVKGRFTISRDNAKNTVYLQMNSLKPEDTAMYYCAAREATEFYLYYWGQGTQVTVSS | low polyreactivity
QVQLQESGGGLVQAGGSLRLSCAASGSIFEELDMGWYRQAPGKEREFVAAIGTGSTTYYADSVKGRFTISRDNAKNTVYLQMNSLKPEDTAVYYCAVDTWARAYLGYWGQGTQVTVSS | high polyreactivity
QVQLQESGGGLVQAGGSLRLSCAASGSIFVSVTMGWYRQAPGKERELVASIGRGSTTNHADSVKGRFTISRDNATNIFYLLMNSLNPEDTAVYYCAALESYGKYHGYWGQGTQVTVSS | low polyreactivity
QVQLQESGGGLVQAGGSLRLSCAASGSISGPHVMGWYRQAPGKEREFVAAINVGANTYYADNVKGRFTISRDNAKNTVYLQMNSLKPEDTAVYYCAAEYGIYETGHYGIYDYWGQGTQVTVSS | low polyreactivity
QVQLQESGGGLVQAGGSLRLSCAASGSISHYIFMGWYRQAPGKEREFVAGIGYGGTTNYADSVKGRFTISRDNAKNTVYLQMNSLKPEDTAMYYCAAREATEFYLYYWGQGTQVTVSS | low polyreactivity
QVQLQESGGGLVQAGGSLRLSCAASGSISILENMGWYRQPPGLGRDFVAGIGYGSSTYYADSVKGRFTISRDNAKNTVYQQMNSLKPEDTTVYYCAVVEYQCVTYLYWGQGSQVTVSS | low polyreactivity
QVQLQESGGGLVQAGGSLRLSCAASGSISNLIAKGWYRQAQGKEREFVAAIGPGANTNYADSVKGRFTISRDNANNTVSLQMNSLKPDDTAVFYCAVDYYGVAVYHYWGQGTQVTVSS | high polyreactivity
QVQLQESGGGLVQAGGSLRLSCAASGSIYDDTYMGWSRQAPGKERELVATIDSGSTTNYADSVKGRITISRDNAKNTVYLQMNSLKPEDTAVYYCAAADSHIDYFDYWGQGTQVTVSS | low polyreactivity
QVQLQESGGGLVQAGGSLRLSCAASGTIFCLWAMGWYCQAPGKERELVASISSGGTTYHADSVKGRFTISRDNAKNTVYLQMNSLKPEDTAVYYSAAFYVATAKLGYWGQGSQVTVSS | low polyreactivity
QVQLQESGGGLVQAGGSLRLSCAASGTIFDKDDMGWYRQAPGKEREFVAGIDRGGTTNCAGSVKGRFTISRDNAKNTVYLQMISLKPEDTEVYYCAAYYPDIYPFIYRGQGTQVTVSS | high polyreactivity
QVQLQESGGGLVQAGGSLRLSCAASGTIFRISDMGSYRQAPGKEREFVAAITYGANTYYADSGKGRFTISRDNAKNTVYLQMNSLIPEDTAVYYCAVPPVKETILDYWGQGTQVTVSC | low polyreactivity
QVQLQESGGGLVQAGGSLRLSCAASGTILYSLGMGWYRQAPGKRREFVASITWGTTTNYAESVKGRFTISRDNAKNTVYPQMNSLKPDVTAVYDCAAPPFGDSSYHYWGQGTQVTVSS | low polyreactivity
QVQLQESGGGLVQAGGSLRLSCAASGTISPLPAMAWYRQAPGKEREFVAGIDTGAITNYADSVKGRFTISRANAKNTVYLQMNSLIPEDTAVYYCAVFPAAYDYYERYYTYWGQGTQVTVSS | low polyreactivity
QVQLQESGGGLVQAGGSLRLSCAASGTISPLPAMGWYRQAPGKEREFVAGIDTGAITNYADSVKGRFTISRDNAKNTVYLQMNSLIPEDTAVYYCAVFPAAYDYYERYYTYWGQGTQVTVSS | low polyreactivity
